Several values for one entry are separate records, joined by “and”; a condition that tells them apart may be missing. Equal values may be shown once.
Legend:
[1] = molecular target: human voltage-gated proton channel hHv1 (human) (UniProt Q96D96); experiment: whole-cell patch clamp (block of H+ current); as a1 but test pulses to +20 mV
[2] = molecular target: hHv1-E192C (human) (UniProt Q96D96); experiment: whole-cell patch clamp (block of H+ current)
[3] = molecular target: hHv1-H193C (human) (UniProt Q96D96); experiment: whole-cell patch clamp (block of H+ current)
[4] = molecular target: human voltage-gated proton channel hHv1 (human) (UniProt Q96D96); experiment: whole-cell patch clamp (block of H+ current)
[5] = molecular target: hHv1-L200C (human) (UniProt Q96D96); experiment: whole-cell patch clamp (block of H+ current)
[6] = molecular target: hHv1-D185C (human) (UniProt Q96D96); experiment: whole-cell patch clamp (block of H+ current)
[7] = molecular target: hHv1-R205N (human) (UniProt Q96D96); experiment: whole-cell patch clamp (block of H+ current)
[8] = molecular target: hHv1-E196C (human) (UniProt Q96D96); experiment: whole-cell patch clamp (block of H+ current)
[9] = molecular target: hHv1-V187C (human) (UniProt Q96D96); experiment: whole-cell patch clamp (block of H+ current)
[10] = molecular target: hHv1-G199C (human) (UniProt Q96D96); experiment: whole-cell patch clamp (block of H+ current)
[11] = molecular target: hHv1-R211S (human) (UniProt Q96D96); experiment: whole-cell patch clamp (block of H+ current)
[12] = molecular target: hHv1-L203C (human) (UniProt Q96D96); experiment: whole-cell patch clamp (block of H+ current)
[13] = molecular target: human voltage-gated proton channel hHv1 (human) (UniProt Q96D96)
[14] = molecular target: human voltage-gated proton channel hHv1, Q96D96-1; experiment: whole-cell patch clamp; conditions: +40 mV; HEK293T cells; parent: 0.031 ± 0.003 µM
[15] = molecular target: C6 peptide; experiment: whole-cell patch clamp; conditions: +40 mV, HEK293T cells; for ratio to parent: parent: est. 1.0, read off a plot

Work on C6 peptide (designed binder) yielded a Ki [1] of 4.9 nM, a koff [1] of 0.0043 s⁻¹ and a kon [1] of 400000 M⁻¹ s⁻¹. For the same substance, the Ki mutation/Ki WT [2] was > 43 fold, the Ki mutation/Ki WT [3] was > 43 fold and the kon [4] was 300000 M⁻¹ s⁻¹ and 500000 M⁻¹ s⁻¹. The Ki mutation/Ki WT [5] was > 43 fold, the fold enhancement of C6 inhibition against WT hHv1 [6] was > 4 fold and the Ki [7] was 161 nM. The koff [7] was 0.19 s⁻¹, the kon [7] was 300000 M⁻¹ s⁻¹ and the Ki mutation/Ki WT [8] was > 43 fold. For the same substance, the Ki mutation/Ki WT [9] was > 43 fold, the Ki [10] was 1.9 nM and the Ki [11] was 0.6 nM. For the same substance, the koff [11] was 0.0008 s⁻¹, the kon [11] was 500000 M⁻¹ s⁻¹ and the fold enhancement of C6 inhibition against WT hHv1 [12] was > 4 fold. For the same substance, the fraction of H+ current blocked by 250 nM C6, whole-cell patch clamp in HEK293T cells, -20 mV to +40 mV [13] was 90%.
Work on C6 peptide R36A yielded a Ki [14] of 15 µM.
In the case of “human voltage-gated proton channel hHv1 (from UniProt Q96D96-1) A197C”, the ratio to parent [15] is reported as 7.6.
With “human voltage-gated proton channel hHv1 (from UniProt Q96D96-1) E192A” the Ki ([15]; parent: 0.031 ± 0.003 µM) was 18 µM.
For “human voltage-gated proton channel hHv1 (from UniProt Q96D96-1) F190C”, the ratio to parent [15] was 0.62.
“human voltage-gated proton channel hHv1 (from UniProt Q96D96-1) F195C” gave a ratio to parent [15] of 3.6.
“human voltage-gated proton channel hHv1 (from UniProt Q96D96-1) I183C” gave a ratio to parent [15] of 1.1.
“human voltage-gated proton channel hHv1 (from UniProt Q96D96-1) I186C” gave a ratio to parent [15] of 1.4.
Substance “human voltage-gated proton channel hHv1 (from UniProt Q96D96-1) I202C” has a ratio to parent [15] of 30.
“human voltage-gated proton channel hHv1 (from UniProt Q96D96-1) L184C” gave a ratio to parent [15] of 22.
“human voltage-gated proton channel hHv1 (from UniProt Q96D96-1) L188C” was tested, and the ratio to parent [15] was 11.
Substance “human voltage-gated proton channel hHv1 (from UniProt Q96D96-1) L189A” has a ratio to parent [15] of 0.87.
“human voltage-gated proton channel hHv1 (from UniProt Q96D96-1) L198C” showed a ratio to parent [15] of 1.4.
In the case of “human voltage-gated proton channel hHv1 (from UniProt Q96D96-1) L201C”, the ratio to parent [15] is reported as 3.6.
For “human voltage-gated proton channel hHv1 (from UniProt Q96D96-1) L203A”, the ratio to parent [15] was 0.28.
For “human voltage-gated proton channel hHv1 (from UniProt Q96D96-1) L204C”, the ratio to parent [15] was 2.3.
With “human voltage-gated proton channel hHv1 (from UniProt Q96D96-1) Q191C” the ratio to parent [15] was 8.7.
“human voltage-gated proton channel hHv1 (from UniProt Q96D96-1) Q194C” showed a ratio to parent [15] of 6.
“human voltage-gated proton channel hHv1 (from UniProt Q96D96-1) V187A” gave a ratio to parent [15] of 130.

— publication PMC9191634
